Assay results: patent US20140147868A1 (published 2014)
Positions of bridges follow the written chain, without caps; N, C: chain ends. No end group written: not given here.

B3: monoclonal antibody TC2 (antibody, mouse IgG1, V domains shown)
VH: QVQLKQSGPGLLQPSQSLSITCTVSGFSLTYYGVHWVRQSPVKGLEWLGVIWSGGDTDYDTTFISRLSISKDNSKGQVFFKMTSLQTDDTAIYYCARGRTYGIHFDYWGQGTTLTVSS
VL: DIVMSQSPSSLAVSVGEKVTMSCKSSQSLFNSRTRKNYLAWYQQKPGQSPKVLIYWASTRESGVPDRFTGSGSGTDFTLTISSVQAEDLAIYYCKQFYDLWTFGGGTKLEIKR
notes: also called mAb TC2; ECACC 02110742

Experiments:
monoclonal antibody 3C4 [1] = molecular target: T1, monoclonal antibody 3C4; assay: SPR, inhibition of phagemid binding to 3C4 by 1 uM holoTC (competitor)
T1 construct: also called mAb 3C4; 3C4 (3CY)
Procedure: (§1) The carboxylated surface of the a dextran coated CM5 chip (Biacore, Sweden) was activated according to protocol supplied by the manufacturer. In short 0.05M N-hydroxysuccinimide (NHS)/0.2 M N-ethyl-N′-[3-(dimethylamino)propyl]carbodiimide hydrochloride (EDC), was injected over the carboxylated chip at 10 μL/min for 7 min, then 50 μg/mL rabbit anti-mouse IgG polyclonal antibody in 10 mM acetate buffer, pH 5.0 is injected at 10 μL/min for 7 min, and finally the chip is blocked by injection of 1 M ethanolamine at 10 μL/min for 7 min. Immobilization of mouse monoclonal antibodies on the dextran coated chip was performed in the same way.
(§2) Antibodies were covalently immobilized on a dextran coated CM5 chip as described in Example 2. Phages were diluted 10-fold in HBS-EP and injected at 10 μL/min for 3 min. The amounts of phagemid bound was recorded in real time and expressed in response units (RU). To evaluate blocking by holoTC, 1 μM of holoTC was injected at 10 μL/min for 5 min prior to the injection of phagemids at 10 μL/min for 3 min. Inhibition was computed as the number of RU of phagemid bound to 3C4 with pretreatment with holoTC divided with the number of RU bound without pretreatment, times 100.
Target sequence in this assay (VH, as listed by the source, chain 1 of 2): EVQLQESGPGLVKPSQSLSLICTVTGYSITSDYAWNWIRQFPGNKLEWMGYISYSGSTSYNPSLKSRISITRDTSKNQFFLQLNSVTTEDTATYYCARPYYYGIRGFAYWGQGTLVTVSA
Target sequence in this assay (VL, as listed by the source, chain 2 of 2): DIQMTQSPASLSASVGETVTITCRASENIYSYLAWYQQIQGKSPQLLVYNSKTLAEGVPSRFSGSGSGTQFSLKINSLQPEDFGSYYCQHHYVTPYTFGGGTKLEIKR

monoclonal antibody 3C4 [2] = molecular target: T1, monoclonal antibody 3C4; assay: phage ELISA, coated mAb 3C4, 10^8 phagemid per well
Procedure: (§3) Microtitre plates were coated with 100 μL, 1 μg/mL mAb 3C4 or unrelated control antibody in PBS over night at 4 C. Remaining binding sites were blocked with 20 mg/mL bovine serum albumin (BSA) in PBS for 1 h. Some wells were only coated with BSA. Monoclonal packaged phagemids were added at a concentration of 10¹⁰ to 10⁸ cfu per well in PBS and incubated for 1 h. Preparations of packaged phagemids were centrifuged to remove aggregates. Wells were washed 6 times with PBS containing 0.1% Tween-20 and 3 times with PBS. For detection of bound phages 100 μL of horse-radish peroxidase (HRP) conjugated anti-[…] antibody (e.g. Pharmacia) diluted 1/5000 in PBS was added to each well and incubated for 1 h at ambient temperature. ELISA plates were washed 5 times with PBS containing 0.1% Tween-20 and 3 times with PBS. The chromogenic substrate o-Phenyldiamine in citric acid, pH 4.0 supplemented with H₂O₂ was added and the color generating reaction was stopped after 2-5 min by addition of 2 M H₂SO₄.
Target sequence in this assay (VH, as listed by the source, chain 1 of 2): as the sequence (VH, as listed by the source, chain 1 of 2) above
Target sequence in this assay (VL, as listed by the source, chain 2 of 2): as the sequence (VL, as listed by the source, chain 2 of 2) above

monoclonal antibody 3C4 [3] = molecular target: T1, monoclonal antibody 3C4; assay: phage ELISA, coated mAb 3C4, 10^9 phagemid per well
Procedure: as §3
Target sequence in this assay (VH, as listed by the source, chain 1 of 2): as the sequence (VH, as listed by the source, chain 1 of 2) above
Target sequence in this assay (VL, as listed by the source, chain 2 of 2): as the sequence (VL, as listed by the source, chain 2 of 2) above

monoclonal antibody 3C4 [4] = molecular target: T1, monoclonal antibody 3C4; assay: phage ELISA, coated mAb 3C4, 10^10 phagemid per well
Procedure: as §3

monoclonal antibody 3C4 [5] = molecular target: T1, monoclonal antibody 3C4; assay: SPR, phagemid bound to 3C4 after 1 uM holoTC (competitor)
Procedure: as §1, §2
Target sequence in this assay (VH, as listed by the source, chain 1 of 2): as the sequence (VH, as listed by the source, chain 1 of 2) above
Target sequence in this assay (VL, as listed by the source, chain 2 of 2): as the sequence (VL, as listed by the source, chain 2 of 2) above

monoclonal antibody 3C4 [6] = molecular target: T1, monoclonal antibody 3C4; assay: SPR, 3C4 immobilised, phagemid injected
Procedure: as §1, §2
Target sequence in this assay (VH, as listed by the source, chain 1 of 2): as the sequence (VH, as listed by the source, chain 1 of 2) above
Target sequence in this assay (VL, as listed by the source, chain 2 of 2): as the sequence (VL, as listed by the source, chain 2 of 2) above

monoclonal antibody 3-9 = molecular target: T2, monoclonal antibody 3-9; assay: SPR, mAb 3-9 immobilised, phagemid injected
T2 construct: Antibody from State University of New York; also called mAb 3-9
Procedure: as §1, §2

monoclonal antibody 3C4 [7] = molecular target: T1, monoclonal antibody 3C4; assay: SPR, mAb 3C4 immobilised, phagemid injected
Procedure: as §1, §2
Target sequence in this assay (VH, as listed by the source): as the sequence (VH, as listed by the source, chain 1 of 2) above

monoclonal antibody TC2 = molecular target: B3; assay: SPR, mAb immobilised, phagemid injected (Table 5; 1 RU)
Procedure: as §1, §2

[8] = molecular target: T3, human holotranscobalamin (holoTC) (human, UniProt P20062 19-427, cobalamin bound (holo form, non-covalent)); assay: SPR; holoTC against apoTC
T3 construct: Recombinant human holoTC in the SPR work; also called holo-TCII
T3 chain: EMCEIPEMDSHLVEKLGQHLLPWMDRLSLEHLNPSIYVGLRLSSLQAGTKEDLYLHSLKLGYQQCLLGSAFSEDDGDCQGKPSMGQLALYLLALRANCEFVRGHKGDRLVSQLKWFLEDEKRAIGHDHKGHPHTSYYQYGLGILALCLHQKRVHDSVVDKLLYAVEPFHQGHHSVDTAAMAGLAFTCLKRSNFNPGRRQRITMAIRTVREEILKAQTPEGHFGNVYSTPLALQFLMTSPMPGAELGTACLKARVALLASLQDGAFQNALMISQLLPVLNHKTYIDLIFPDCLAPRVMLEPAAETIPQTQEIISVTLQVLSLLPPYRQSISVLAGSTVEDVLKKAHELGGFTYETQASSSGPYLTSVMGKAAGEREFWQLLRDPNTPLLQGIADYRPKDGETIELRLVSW

[9] = molecular target: T3, human holotranscobalamin (holoTC); assay: SPR (BIAcore), antibody immobilised; head read as 10^-4
[10] = molecular target: T4, human apotranscobalamin (apoTC) (human, UniProt P20062 19-427); assay: as above
T4 construct: Same chain as holoTC without cobalamin; also called apo-TCII
T4 chain: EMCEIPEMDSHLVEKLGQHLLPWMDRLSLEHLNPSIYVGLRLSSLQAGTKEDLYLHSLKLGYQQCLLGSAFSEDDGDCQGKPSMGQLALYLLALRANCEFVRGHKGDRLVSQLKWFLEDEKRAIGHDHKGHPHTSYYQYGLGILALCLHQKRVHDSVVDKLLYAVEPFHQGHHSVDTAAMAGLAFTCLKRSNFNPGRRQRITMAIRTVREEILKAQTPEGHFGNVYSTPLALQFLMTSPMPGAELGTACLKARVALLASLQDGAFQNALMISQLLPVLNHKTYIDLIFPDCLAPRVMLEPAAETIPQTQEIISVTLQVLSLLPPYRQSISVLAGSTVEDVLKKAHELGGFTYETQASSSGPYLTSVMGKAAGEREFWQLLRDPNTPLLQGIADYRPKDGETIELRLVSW

[11] = molecular target: T3, human holotranscobalamin (holoTC); assay: SPR (Biacore), mAb on chip, TC injected
[12] = molecular target: T3, human holotranscobalamin (holoTC); assay: SPR (BIAcore), antibody immobilised
[13] = molecular target: T4, human apotranscobalamin (apoTC); assay: SPR (BIAcore), antibody immobilised
[14] = molecular target: T3, human holotranscobalamin (holoTC); assay: SPR (Biacore); Kd values for holoTC
[15] = molecular target: T3, human holotranscobalamin (holoTC); assay: SPR (BIAcore), scFv immobilised; head read as 10^-4
[16] = molecular target: T4, human apotranscobalamin (apoTC); assay: as above
[17] = molecular target: T3, human holotranscobalamin (holoTC); assay: SPR (BIAcore), scFv immobilised
[18] = molecular target: T3, human holotranscobalamin (holoTC); assay: SPR, scFv injected over immobilised holoTC
Procedure: Selected scFv antibodies were evaluated by surface plasmon resonance essentially as described in Example 2. Purified antibody preparations were injected over a chip with immobilized holoTC. The holoTC chip was prepared by binding holoTC to a chip prepared as described in 2.1 or by binding biotinylated holoTC on a streptavidin coated SA chip (Biacore, Sweden).

## CSGLYPWDMFRCS (disulfide 1-12 (inferred); also: displayed on phage (phagemid)) [phagemid CS1-9p (phage-displayed disulfide cyclized 13 mer peptide)]
Monoclonal antibody 3C4 [1]
  Inhibition (%): 87%
Monoclonal antibody 3C4 [2]
  ELISA (absorbance units): 0.259 absorbance units
Monoclonal antibody 3C4 [3]
  ELISA (absorbance units): 0.539 absorbance units
Monoclonal antibody 3C4 [4]
  ELISA (absorbance units): 0.769 absorbance units
Monoclonal antibody 3C4 [5]
  Block by holoTC (RU): 1 RU
Monoclonal antibody 3C4 [6]
  Phage bound (RU): 35 RU

## CSFRYQWDMFRCS (disulfide 1-12 (inferred); also: displayed on phage (phagemid)) [phagemid CS1-11p (phage-displayed disulfide cyclized 13 mer peptide)]
Monoclonal antibody 3-9
  phagemid bound (RU): 0 RU
Monoclonal antibody 3C4 [1]
  Inhibition (%): 100%
Monoclonal antibody 3C4 [2]
  ELISA (absorbance units): 0.348 absorbance units
Monoclonal antibody 3C4 [3]
  ELISA (absorbance units): 0.559 absorbance units
Monoclonal antibody 3C4 [4]
  ELISA (absorbance units): 0.645 absorbance units
Monoclonal antibody 3C4 [5]
  Block by holoTC (RU): 0 RU
Monoclonal antibody 3C4 [7]
  phagemid bound (RU): 32 RU
Monoclonal antibody 3C4 [6]
  Phage bound (RU): 32 RU

## CSGLYPWDYFMCS (disulfide 1-12 (inferred); also: displayed on phage (phagemid)) [phagemid CS1-29p (phage-displayed disulfide cyclized 13 mer peptide)]
Monoclonal antibody 3C4 [1]
  Inhibition (%): 85%
Monoclonal antibody 3C4 [2]
  ELISA (absorbance units): 0.156 absorbance units
Monoclonal antibody 3C4 [3]
  ELISA (absorbance units): 0.189 absorbance units
Monoclonal antibody 3C4 [4]
  ELISA (absorbance units): 0.335 absorbance units
Monoclonal antibody 3C4 [5]
  Block by holoTC (RU): 3 RU
Monoclonal antibody 3C4 [6]
  Phage bound (RU): 20 RU

B1: phagemid CS1-31p (phage-displayed disulfide cyclized 13 mer peptide) (peptide)
peptide: CSFFYSLCYCWCS
modifications: disulfide (positions not given here); also: four Cys, disulfide pairing not given here
notes: also called CSI-31p
Monoclonal antibody 3-9
  phagemid bound (RU): 0 RU
Monoclonal antibody 3C4 [1]
  Inhibition (%): 88%
Monoclonal antibody 3C4 [2]
  ELISA (absorbance units): 0.152 absorbance units
Monoclonal antibody 3C4 [3]
  ELISA (absorbance units): 0.165 absorbance units
Monoclonal antibody 3C4 [4]
  ELISA (absorbance units): 0.298 absorbance units
Monoclonal antibody 3C4 [5]
  Block by holoTC (RU): 5 RU
Monoclonal antibody 3C4 [7]
  phagemid bound (RU): 42 RU
Monoclonal antibody 3C4 [6]
  Phage bound (RU): 42 RU

B2: phagemid CS1-2p (phage-displayed disulfide cyclized 13 mer peptide) (peptide)
peptide: CSLFYLWDQDRCS
modifications: disulfide 1-12 (inferred); also: displayed on phage (phagemid), coat fusion not given here
Monoclonal antibody 3C4 [2]
  ELISA (absorbance units): 0.245 absorbance units
Monoclonal antibody 3C4 [3]
  ELISA (absorbance units): 0.224 absorbance units
Monoclonal antibody 3C4 [4]
  ELISA (absorbance units): 0.287 absorbance units
Monoclonal antibody 3C4 [6]
  Phage bound (RU): 4 RU

## CSFRYLWDQDRCS (disulfide 1-12 (inferred); also: displayed on phage (phagemid)) [phagemid CS1-6p (phage-displayed disulfide cyclized 13 mer peptide)]
Monoclonal antibody 3-9
  phagemid bound (RU): 0 RU
Monoclonal antibody 3C4 [1]
  Inhibition (%): 88%
Monoclonal antibody 3C4 [2]
  ELISA (absorbance units): 0.406 absorbance units
Monoclonal antibody TC2
  binding result: no binding
Monoclonal antibody 3C4 [3]
  ELISA (absorbance units): 0.664 absorbance units
Monoclonal antibody 3C4 [4]
  ELISA (absorbance units): 1.06 absorbance units
Monoclonal antibody 3C4 [5]
  Block by holoTC (RU): 3 RU
Monoclonal antibody 3C4 [7]
  phagemid bound (RU): 45 RU
Monoclonal antibody 3C4 [6]
  Phage bound (RU): 24 RU

## B3
[8]
  holo/apo Specificity (-fold): 1 -fold
[9]
  koff: 0.0004 s⁻¹
[10]
  koff: 0.0015 s⁻¹
[11]
  Kd: 1 to 5 nM
[12]
  Ka: 2.5e+08 M⁻¹
  kon: 100000 M⁻¹ s⁻¹
[13]
  Ka: 7e+07 M⁻¹
  kon: 100000 M⁻¹ s⁻¹
[14]
  Kd: 1 to 5 nM

B4: single chain antibody fragment TC2_ScFv (scFv)
scFv: QVQLKQSGPGLLQPSQSLSITCTVSGFSLTYYGVHWVRQSPVKGLEWLGVIWSGGDTDYDTTFISRLSISKDNSKGQVFFKMTSLQTDDTAIYYCARGRTYGIHFDYWGQGTTLTVSSGGGGSGGGGSGGGGSDIVMSQSPSSLAVSVGEKVTMSCKSSQSLFNSRTRKNYLAWYQQKPGQSPKVLIYWASTRESGVPDRFTGSGSGTDFTLTISSVQAEDLAIYYCKQFYDLWTFGGGTKLEIKR
notes: A C-terminal tag may be present; also called scFv TC2
[15]
  koff: 0.0015 s⁻¹
[16]
  koff: 0.0015 s⁻¹
[17]
  Ka: 3e+06 M⁻¹
  kon: 4000 M⁻¹ s⁻¹

B5: mutated scFv 3C4 clone 3.9G2 (scFv)
scFv: EVQLQESGPGLVKPSLSLSLICTVTGYSIASDYTWNWIRQFPGNKLEWMGYISYSGSTSYNPSLKSRISITRDTSKNQFFLQLNSVTTEDTATYYCARPYYYGIRGFAYWGQGTLVTVSAGGGGSGGGGSGGGGSDIQMTQSPASLSASVGETVTITCRASENIYSYLAWYQQIQGKSPQLLVYNSKTLTEGVPSRFSGSGSGTQFSLKINSLQPEDFGSYYCQHHYVTPYTFGGGTKLEIKR
notes: A190T stands in the next printed row (r19)
[18]
  Kd: 150 nM
  koff: 0.00059 s⁻¹
  kon: 3800 M⁻¹ s⁻¹
